B1: hFGF21(33-209)-V55 (ligand)
chain: DSSPLLQFGGQVRQRYLYTDDAQQTEAHLEIREDGTAGGAAHQSPESLLELKALKPGVIQILGVKTSRFLCQKPDGALYGSLHFDPEACSFRELLLENGYNVYQSEAHGLPLHLPGNRSPHRDPASQGPARFLPLPGLPPAPPEPPGILAPQPPDVGSSDPLAMVGPSQGRSPSYAS
B2: hFGF21(33-209)-V56 (ligand)
chain: DSSPLLQFGGQVRQRYLYTDDAQQTEAHLEIREDGTVGGAAHQSPESLLQLKALKPGVIQILGVKASRFLCQKPDGALYGSLHFDPEACSFRELLLENGYNVYQSETHGLPLHLPGNKSPHRDPASQGPARFLPLPGLPPAPPEPPGILAPQPPDVGSSDPLAMVGPSQARSPSYAS
B3: hFGF21(33-209)-V57 (ligand)
chain: DSSPLLQFGGQVRQRYLYTDDAQQTEAHLEIREDGTVGGAAHQSPESLLQLKALKPGVIQILGVKASRFLCQRPDGALYGSLHFDPEACSFRELLLENGYNVYQSETHGLPLHLPGNRSPHRDPASQGPARFLPLPGLPPAPPEPPGILAPQPPDVGSSDPLAMVGPSQARSPSYAS
B4: hFGF21(33-209)-V58 (ligand)
chain: DSSPLLQFGGQVRQRYLYTDDAQQTEAHLEIREDGTVGGAAHQSPESLLQLKALKPGVIQILGVKTSRFLCQRPDGTLYGSLHFDPEACSFRELLLENGYNVYQSETHGLPLHLPGNRSPHRDPASQGPARFLPLPGLPPAPPEPPGILAPQPPDVGSSDPLAMVGPSQARSPSYAS
B5: hFGF21(33-209)-V59 (ligand)
chain: DSSPLLQFGGQVRQRYLYTDDACQTEAHLEIREDGTVGGAAHQSPESLLELKALKPGVIQILGVKTSRFLCQRPDGALYGSLHFDPEACSFRELLLENGYNVYQSEAHGLPLHLPCNRSPHRDPASQGPARFLPLPGLPPAPPEPPGILAPQPPDVGSSDPLAMVGPSQGRSPSYAS
B6: hFGF21(33-209)-V60 (ligand)
chain: DSSPLLQFGGQVRQRYLYTDDACQTEAHLEIREDGTVGGAAHQSPESLLELKALKPGVIQILGVKTSRFLCQRPDGTLYGSLHFDPEACSFRELLLENGYNVYQSEAHGLPLHLPCNRSPHRDPASRGPARFLPLPGLPPAPPEPPGILAPQPPDVGSSDPLAMVGPSQGRSPSYAS
B7: hFGF21(33-209)-V8 (ligand)
chain: DSSPLLQFGGQVRQRYLYTDDAQETEAHLEIREDGTVGGAAHQSPESLLQLKALKPGVIQILGVQTSRFLCQKPDGALYGSLHFDPEACSFRELLLENGYNVYQSETHGLPLHLPGNKSPHRDPASQGPARFLPLPGLPPALPEPPGILAPQPPDVGSSDPLAMVGPSQARSPSYAS
B8: hFGF21(33-209)-V61 (ligand)
chain: DSSPLLQFGGQVRQRYLYTDDACQTEAHLEIREDGTAGGAAHQSPESLLELKALKPGVIQILGVKTSRFLCQRPDGALYGSLHFDPEACSFRELLLENGYNVYQSEAHGLPLHLPCNRSPHRDPASRGPARFLPLPGLPPAPPEPPGILAPQPPDVGSSDPLAMVGPSQGRSPSYAS
B9: hFGF21(33-209)-V62 (ligand)
chain: DSSPLLQFGGQVRQRYLYTDDACQTEAHLEIREDGTVGGAAHQSPESLLQLKALKPGVIQILGVKTSRFLCQRPDGALYGSLHFDPEACSFRELLLENGYNVYQSETHGLPLHLPCNKSPHRDPASQGPARFLPLPGLPPAPPEPPGILAPQPPDVGSSDPLAMVGPSQARSPSYAS
B10: hFGF21(33-209)-V63 (ligand)
chain: DSSPLLQFGGQVRQRYLYTDDACQTEAHLEIREDGTVGGAAHQSPESLLQLKALKPGVIQILGVKTSRFLCQRPDGALYGSLHFDPEACSFRELLLENGYNVYQSETHGLPLHLPCNRSPHRDPASRGPARFLPLPGLPPAPPEPPGILAPQPPDVGSSDPLAMVGPSQARSPSYAS
B11: hFGF21(33-209)-V64 (ligand)
chain: DSSPLLQFGGQVRQRYLYTDDACQTEAHLEIREDGTVGGAADQSPESLLQLKALKPGVIQILGVKTSRFLCQRPDGTLYGSLHFDPEACSFRELLLENGYNVYQSETHGLPLHLPCNRSPHRDPASRGPARFLPLPGLPPAPPEPPGILAPQPPDVGSSDPLAMVGPSQARSPSYAS
B12: hFGF21(33-209)-V73 (ligand)
chain: DSSPLLQFGGQVRQRYLYTDDAQETEAHLEIREDGTVGGAAHQSPESLLELKALKPGVIQILGVKTSRFLCQKPDGALYGSLHFDPEACSFRELLLEEGYNVYQSEAHGLPLHLPGNRSPHRDPAPQGPARFLPLPGLPPALPEPPGILAPQPPDVGSSDPLAMVGPSQGRSPSYAS
B13: hFGF21(33-209)-V73-N-40 kDa bPEG-AL (ligand)
chain: DSSPLLQFGGQVRQRYLYTDDAQETEAHLEIREDGTVGGAAHQSPESLLELKALKPGVIQILGVKTSRFLCQKPDGALYGSLHFDPEACSFRELLLEEGYNVYQSEAHGLPLHLPGNRSPHRDPAPQGPARFLPLPGLPPALPEPPGILAPQPPDVGSSDPLAMVGPSQGRSPSYAS
modifications: 40 kDa branched PEG (aldehyde reagent) on the N-terminal amine
B14: hFGF21(33-209)-V76 (ligand)
chain: DSSPLLQFGGQVRQRYLYTDDAQETEAHLEIREDGTVGGAAHQSPESLLELKALKPGVIQILGVKTSRFLCQKPDGALYGSLHFDPEACSFRELLLEDGYNVYQSEAHGLPLHLPGNRSPHCDPAPQGPARFLPLPGLPPALPEPPGILAPQPPDVGSSDPLAMVGPSQGRSPSYAS
B15: hFGF21(33-209)-V76-154C-40 kDa-bPEG-MA (ligand)
chain: DSSPLLQFGGQVRQRYLYTDDAQETEAHLEIREDGTVGGAAHQSPESLLELKALKPGVIQILGVKTSRFLCQKPDGALYGSLHFDPEACSFRELLLEDGYNVYQSEAHGLPLHLPGNRSPHCDPAPQGPARFLPLPGLPPALPEPPGILAPQPPDVGSSDPLAMVGPSQGRSPSYAS
modifications: 40 kDa branched maleimido-PEG on Cys 154 (numbered on SEQ ID NO:1)
B16: hFGF21(33-209)-V79 (ligand)
chain: DSSPLLQFGGQVRQRYLYTDDAQQTEAHLEIREDGTVGGAAHQSPESLLELKALKPGVIQILGVKTSRFLCQKPDGALYGSLHFDPEACSFRELLLEDGYNVYQSEAHGLPLHLPGNRSPHCDPAPQGPARFLPLPGLPPALPEPPGILAPQPPDVGSSDPLAMVGPSQARSPSYAS
B17: hFGF21(33-209)-V80 (ligand)
chain: DSSPLLQFGGQVRQRYLYTDDAQQTEAHLEIREDGTVGGAADQSPESLLELKALKPGVIQILGVKTSRFLCQKPDGTLYGSLHFDPEACSFRELLLEDGYNVYQSEAHGLPLHLPGNRSPHCDPAPQGPARFLPLPGLPPALPEPPGILAPQPPDVGSSDPLAMVGPSQARSPSYAS
B18: hFGF21(33-209)-V9 (ligand)
chain: DSSPLLQFGGQVRQRYLYTDDDQQTEAHLEIREDGTVGGAAHQSPESLLQLKALKPGVIQILGVKASRFLCQKPDGALYGSLHFDPEACSFRELLLENGYNVYQSETHGLPLHLPGNKSPHRDPASQGPARFLPLPGLPPALPEPPGILAPQPPDVGSSDPLAMVGPSQARSPSYAS
B19: hFGF21(33-209)-V81 (ligand)
chain: DSSPLLQFGGQVRQRYLYTDDAQQTEAHLEIREDGTVGGAAHQSPESLLELKALKPGVIQILGVKTSRFLCQKPDGALYGSLHFDPEACSFRELLLEDGYNVYQSEAHGLPLHLPGNRSPHCDPASQGPARFLPLPGLPPALPEPPGILAPQPPDVGSSDPLAMVGPSQGRSPSYAS
B20: hFGF21(33-209)-V82 (ligand)
chain: DSSPLLQFGGQVRQRYLYTDDAQQTEAHLEIREDGTVGGAADQSPESLLELKALKPGVIQILGVKTSRFLCQKPDGTLYGSLHFDPEACSFRELLLEDGYNVYQSEAHGLPLHLPGNRSPHCDPASQGPARFLPLPGLPPALPEPPGILAPQPPDVGSSDPLAMVGPSQGRSPSYAS

Target: T1, human β-klotho (human, UniProt Q86Z14 1-1044)
T1 sequence (looked up): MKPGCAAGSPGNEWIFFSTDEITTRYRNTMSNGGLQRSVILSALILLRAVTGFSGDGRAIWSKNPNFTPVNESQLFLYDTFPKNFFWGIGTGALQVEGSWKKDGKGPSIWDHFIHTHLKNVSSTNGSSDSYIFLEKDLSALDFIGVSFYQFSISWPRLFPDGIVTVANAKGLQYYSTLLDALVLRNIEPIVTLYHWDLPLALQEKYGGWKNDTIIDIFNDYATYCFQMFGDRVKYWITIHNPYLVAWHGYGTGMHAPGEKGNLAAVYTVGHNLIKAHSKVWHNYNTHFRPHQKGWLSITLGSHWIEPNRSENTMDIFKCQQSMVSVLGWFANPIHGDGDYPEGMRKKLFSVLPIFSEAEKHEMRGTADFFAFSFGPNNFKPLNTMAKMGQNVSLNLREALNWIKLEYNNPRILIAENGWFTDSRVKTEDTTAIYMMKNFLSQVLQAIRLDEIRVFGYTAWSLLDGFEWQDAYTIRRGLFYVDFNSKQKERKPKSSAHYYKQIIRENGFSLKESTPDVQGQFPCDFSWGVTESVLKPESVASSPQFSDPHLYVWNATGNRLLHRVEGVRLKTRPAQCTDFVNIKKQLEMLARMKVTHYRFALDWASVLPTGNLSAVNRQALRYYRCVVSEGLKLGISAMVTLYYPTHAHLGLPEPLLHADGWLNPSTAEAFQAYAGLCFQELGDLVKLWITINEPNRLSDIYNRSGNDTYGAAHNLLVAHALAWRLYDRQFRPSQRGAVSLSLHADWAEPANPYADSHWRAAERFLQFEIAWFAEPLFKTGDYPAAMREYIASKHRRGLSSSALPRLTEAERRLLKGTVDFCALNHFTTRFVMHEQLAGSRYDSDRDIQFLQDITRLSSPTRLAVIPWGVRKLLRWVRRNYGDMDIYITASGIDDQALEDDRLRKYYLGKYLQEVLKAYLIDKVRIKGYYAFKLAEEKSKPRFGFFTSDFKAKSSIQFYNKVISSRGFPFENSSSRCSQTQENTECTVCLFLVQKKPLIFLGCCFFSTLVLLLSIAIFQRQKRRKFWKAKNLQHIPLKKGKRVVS
Assay: cell-based or functional assay

Binder | EC50 (nM), pERK In Cell Western [nM] | Fold-WT (EC50 of variant / EC50 of FGF21-WT) [fold]
B1 | 34 | 13
B2 | 37 | 14
B3 | 22 | 5.4
B4 | 3.6 | 2.6
B5 | 6.5 | 1.6
B6 | 7.6 | 2.2
B7 | 14 | 5
B8 | 22 | 6.3
B9 | 24 | 6.8
B10 | 13 | 3.7
B11 | 2.9 | 0.8
B12 | 5.8 | 1.7
B13 | 191 | 66
B14 | 3.4 | 0.47
B15 | 8.3 | 2.4
B16 | 2.2 | 0.4
B17 | 2.2 | 0.4
B18 | 13 | 2.4
B19 | 11 | 2.1
B20 | 1.5 | 2.7

Source: patent US20120129766A1 (IRM, published 2012)
